In patent US20200024322A1 (Eli Lilly, published 2020):
Substitutions are numbered along the chain they refer to.

T1: human gastric inhibitory peptide receptor (GIPR) (human, UniProt P48546 22-466)
T1 sequence (looked up): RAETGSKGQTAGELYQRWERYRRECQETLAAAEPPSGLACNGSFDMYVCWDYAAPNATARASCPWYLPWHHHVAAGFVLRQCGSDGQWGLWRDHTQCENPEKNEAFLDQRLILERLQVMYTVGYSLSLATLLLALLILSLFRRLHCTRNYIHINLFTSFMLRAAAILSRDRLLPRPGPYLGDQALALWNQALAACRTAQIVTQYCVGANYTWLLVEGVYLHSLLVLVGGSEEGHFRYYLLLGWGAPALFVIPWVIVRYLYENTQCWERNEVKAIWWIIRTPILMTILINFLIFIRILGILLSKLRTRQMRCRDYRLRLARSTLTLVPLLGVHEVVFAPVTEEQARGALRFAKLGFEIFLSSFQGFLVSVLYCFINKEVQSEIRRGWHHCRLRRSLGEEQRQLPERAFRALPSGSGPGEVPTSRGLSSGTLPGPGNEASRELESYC

T2: human GIP receptor (human, UniProt P48546 22-466)
T2 construct: whole, on cells; also called hGIPR; hGIP-R
T2 sequence (looked up): T1 sequence (looked up)

B1: (D-Tyr)-Aib-EGTFTSDYSI-αMeL-LD-Orn-K((2-[2-(2-Amino-ethoxy)-ethoxy]-acetyl)2-(γ-Glu)-CO-(CH2)18-CO2H)AQ-Aib-AFVEYLIEGGPSSGAPPPS-NH2 (peptide)
peptide: XXEGTFTSDYSIXLDXKAQXAFVEYLIEGGPSSGAPPPS
modifications: D-Tyr1; Aib2; αMeL13; Orn16; K17 conjugated to (2-[2-(2-Amino-ethoxy)-ethoxy]-acetyl)2-(γ-Glu)-CO-(CH2)18-CO2H; Aib20; C-terminal amide (NH2)
B2: (D-Tyr)-Aib-EGTFTSDYSI-αMeL-LD-Orn-K((2-[2-(2-Amino-ethoxy)-ethoxy]-acetyl)2-(γ-Glu)-CO-(CH2)16-CO2H)AQ-Aib-EFIEYLIAGGPSSGAPPPS-NH2 (peptide)
peptide: B1 peptide with A21E, V23I, E28A
modifications: D-Tyr1; Aib2; αMeL13; Orn16; K17 conjugated to (2-[2-(2-Amino-ethoxy)-ethoxy]-acetyl)2-(γ-Glu)-CO-(CH2)16-CO2H; Aib20; C-terminal amide (NH2)
B3: (D-Tyr)-Aib-EGTFTSDYSI-αMeL-LD-Orn-K((2-[2-(2-Amino-ethoxy)-ethoxy]-acetyl)-(γ-Glu)-CO-(CH2)18-CO2H)AQ-Aib-EFIEYLIAGGPSSGAPPPS-NH2 (peptide)
peptide: B1 peptide with A21E, V23I, E28A
modifications: D-Tyr1; Aib2; αMeL13; Orn16; K17 conjugated to (2-[2-(2-Amino-ethoxy)-ethoxy]-acetyl)-(γ-Glu)-CO-(CH2)18-CO2H; Aib20; C-terminal amide (NH2)
B4: (D-Tyr)-Aib-EGTFTSDYSI-αMeL-LD-Orn-K((2-[2-(2-Amino-ethoxy)-ethoxy]-acetyl)2-(D-(γ-Glu)-CO-(CH2)16-CO2H)AQ-Aib-AFI-Glu)-YLIAGGPSSGAPPPS-NH2 (peptide)
peptide: B1 peptide with V23I, E24X, E28A
modifications: D-Tyr1; Aib2; αMeL13; Orn16; K17 conjugated to (2-[2-(2-Amino-ethoxy)-ethoxy]-acetyl)2-(γ-Glu)-CO-(CH2)16-CO2H; Aib20; C-terminal amide (NH2)
B5: (D-Tyr)-Aib-EGTFTSDYSI-αMeL-LD-Orn-K((2-[2-(2-Amino-ethoxy)-ethoxy]-acetyl)2-(γ-Glu)-CO-(CH2)18-CO2H)AQ-Aib-AFV-(D-Glu)-YLIAGGPSSGAPPPS-NH2 (peptide)
peptide: B1 peptide with E24X, E28A
modifications: D-Tyr1; Aib2; αMeL13; Orn16; K17 conjugated to (2-[2-(2-Amino-ethoxy)-ethoxy]-acetyl)2-(γ-Glu)-CO-(CH2)18-CO2H; Aib20; D-Glu24; C-terminal amide (NH2)
B6: (D-Tyr)-Aib-EGTFTSDYSI-αMeL-LD-Orn-K((2-[2-(2-Amino-ethoxy)-ethoxy]-acetyl)2-(γ-Glu)-CO-(CH2)16-CO2H)AQ-Aib-AFV-(D-Glu)-YLIAGGPSSGAPPPS-NH2 (peptide)
peptide: B1 peptide with E24X, E28A
modifications: D-Tyr1; Aib2; αMeL13; Orn16; K17 conjugated to (2-[2-(2-Amino-ethoxy)-ethoxy]-acetyl)2-(γ-Glu)-CO-(CH2)16-CO2H; Aib20; D-Glu24; C-terminal amide (NH2)
B7: (D-Tyr)-Aib-EGTFTSDYSI-αMeL-LD-Orn-K((2-[2-(2-Amino-ethoxy)-ethoxy]-acetyl)2-(γ-Glu)-CO-(CH2)18-CO2H)AQ-Aib-AFIE-αMeY-LIAGGPSSGAPPPS-NH2 (peptide)
peptide: B1 peptide with V23I, Y25X, E28A
modifications: D-Tyr1; Aib2; αMeL13; Orn16; K17 conjugated to (2-[2-(2-Amino-ethoxy)-ethoxy]-acetyl)2-(γ-Glu)-CO-(CH2)18-CO2H; Aib20; αMeY25; C-terminal amide (NH2)
B8: (D-Tyr)-Aib-EGTFTSDYSI-αMeL-LDKK((2-[2-(2-Amino-ethoxy)-ethoxy]-acetyl)2-(γ-Glu)-CO-(CH2)18-CO2H)AQ-Aib-AFIE-αMeY-LIAGGPSSGAPPPS-NH2 (peptide)
peptide: B1 peptide with X16K, V23I, Y25X, E28A
modifications: D-Tyr1; Aib2; αMeL13; K17 conjugated to (2-[2-(2-Amino-ethoxy)-ethoxy]-acetyl)2-(γ-Glu)-CO-(CH2)18-CO2H; Aib20; αMeY25; C-terminal amide (NH2)
B9: (D-Tyr)-Aib-EGTFTSDYSI-αMeL-LDKK((2-[2-(2-Amino-ethoxy)-ethoxy]-acetyl)-(γ-Glu)-CO-(CH2)18-CO2H)AQ-Aib-AFIE-αMeY-LIAGGPSSGAPPPS-NH2 (peptide)
peptide: B1 peptide with X16K, V23I, Y25X, E28A
modifications: D-Tyr1; Aib2; αMeL13; K17 conjugated to (2-[2-(2-Amino-ethoxy)-ethoxy]-acetyl)-(γ-Glu)-CO-(CH2)18-CO2H; Aib20; αMeY25; C-terminal amide (NH2)
B10: (D-Tyr)-Aib-EGTFTSDYSI-αMeL-LD-Orn-K((2-[2-(2-Amino-ethoxy)-ethoxy]-acetyl)2-(γ-Glu)-CO-(CH2)18-CO2H)AQ-Aib-DFIEYLIAGGPSSGAPPPS-NH2 (peptide)
peptide: B1 peptide with A21D, V23I, E28A
modifications: D-Tyr1; Aib2; αMeL13; Orn16; K17 conjugated to (2-[2-(2-Amino-ethoxy)-ethoxy]-acetyl)2-(γ-Glu)-CO-(CH2)18-CO2H; Aib20; C-terminal amide (NH2)
B11: (D-Tyr)-Aib-EGTFTSDYSI-αMeL-LDKK((2-[2-(2-Amino-ethoxy)-ethoxy]-acetyl)2-(γ-Glu)-CO-(CH2)18-CO2H)AQ-Aib-AFV-(D-Glu)-YLIAGGPSSGAPPPS-NH2 (peptide)
peptide: B1 peptide with X16K, E24X, E28A
modifications: D-Tyr1; Aib2; αMeL13; K17 conjugated to (2-[2-(2-Amino-ethoxy)-ethoxy]-acetyl)2-(γ-Glu)-CO-(CH2)18-CO2H; Aib20; D-Glu24; C-terminal amide (NH2)
B12: (D-Tyr)-Aib-EGTFTSDYSI-αMeL-LD-Orn-K((2-[2-(2-Amino-ethoxy)-ethoxy]-acetyl)2-(c-Glu)-CO-(CH2)18-CO2H)AQ-Aib-EFIEYLIAGGPSSG-NH2 (peptide)
peptide: XXEGTFTSDYSIXLDXKAQXEFIEYLIAGGPSSG
modifications: D-Tyr1; Aib2; αMeL13; Orn16; K17 conjugated to (2-[2-(2-Amino-ethoxy)-ethoxy]-acetyl)2-(c-Glu)-CO-(CH2)18-CO2H ('c-Glu' as printed, presumably γ-Glu); Aib20; C-terminal amide (NH2)
B13: Y-Aib-EGTFTSDYSI-αMeL-LDKK((2[2-(2-Amino-ethoxy)-ethoxy]-acetyl)2-(γ-Glu)-CO-(CH2)18-CO2H)AQ-Aib-EFIE-αMeY-LIAGGPSSGAPPPS-NH2 (peptide)
peptide: YXEGTFTSDYSIXLDKKAQXEFIEXLIAGGPSSGAPPPS
modifications: Aib2; αMeL13; K17 conjugated to (2-[2-(2-Amino-ethoxy)-ethoxy]-acetyl)2-(γ-Glu)-CO-(CH2)18-CO2H; Aib20; αMeY25; C-terminal amide (NH2)
B14: (D-Tyr)-Aib-EGTFTSDYSI-αMeL-LDKK((2-[2-(2-Amino-ethoxy)-ethoxy]-acetyl)-(γ-Glu)-CO-(CH2)18-CO2H)AQ-Aib-EFIE-αMeY-LIAGGPSSGAPPPS-NH2 (peptide)
peptide: B13 peptide with Y1X
modifications: D-Tyr1; Aib2; αMeL13; K17 conjugated to (2-[2-(2-Amino-ethoxy)-ethoxy]-acetyl)-(γ-Glu)-CO-(CH2)18-CO2H; Aib20; αMeY25; C-terminal amide (NH2)
B15: (D-Tyr)-Aib-EGTFTSDYSI-αMeL-LDKK((2-[2-(2-Amino-ethoxy)-ethoxy]-acetyl)2-(γ-Glu)-CO-(CH2)16-CO2H)AQ-Aib-EFIE-αMeY-LIAGGPSSGAPPPS-NH2 (peptide)
peptide: B13 peptide with Y1X
modifications: D-Tyr1; Aib2; αMeL13; K17 conjugated to (2-[2-(2-Amino-ethoxy)-ethoxy]-acetyl)2-(γ-Glu)-CO-(CH2)16-CO2H; Aib20; αMeY25; C-terminal amide (NH2)
B16: Example 301 (peptide)
peptide: YXEGTXTSDYSILLDKKAQXAFIEYLIEGGPSSG
modifications: Aib2; αMeF6; K17((2-[2-(2-Amino-ethoxy)-ethoxy]-acetyl)2-(γ-Glu)-CO-(CH2)16-CO2H); Aib20; C-terminal NH2
notes: also called GG-650
B17: Example 302 (peptide)
peptide: B16 peptide
modifications: Aib2; αMeF(2F)6; K17((2-[2-(2-Amino-ethoxy)-ethoxy]-acetyl)2-(γ-Glu)-CO-(CH2)16-CO2H); Aib20; C-terminal NH2
B18: Example 309 (peptide)
peptide: B16 peptide with E28A
modifications: Aib2; αMeF6; K17((2-[2-(2-Amino-ethoxy)-ethoxy]-acetyl)2-(γ-Glu)-CO-(CH2)16-CO2H); Aib20; C-terminal NH2

Target: T1, human gastric inhibitory peptide …
Assay: cell-based or functional assay

| Binder | hGIPR cAMP EC50 ratio |
| --- | --- |
| B1 | 0.53 |
| B2 | 0.109 |
| B3 | 0.393 |
| B4 | 0.835 |
| B5 | 0.347 |
| B6 | 0.347 |
| B7 | 0.598 |
| B8 | 0.784 |
| B9 | 0.287 |
| B10 | 0.499 |
| B11 | 0.261 |
| B12 | 0.704 |
| B13 | 5.85 |
| B14 | 0.68 |
| B15 | 1.76 |

Target: human GLP-1 receptor (GLP-1R) (human, UniProt P43220 24-463)
Assay: cell-based or functional assay

| Binder | hGLP1R cAMP EC50 ratio |
| --- | --- |
| B1 | 0.171 |
| B2 | 0.299 |
| B3 | 0.206 |
| B4 | 0.146 |
| B5 | 0.0805 |
| B6 | 0.0303 |
| B7 | 0.074 |
| B8 | 0.155 |
| B9 | 0.0621 |
| B10 | 0.319 |
| B11 | 0.0259 |
| B12 | 0.172 |
| B13 | 0.386 |
| B14 | 0.0741 |
| B15 | 0.169 |

Target: T2, human GIP receptor
Assay: [125I]-GIP competition SPA, hGIPR membranes

| Binder | Ki [pM] |
| --- | --- |
| B16 | 27.3 |
| B17 | 28.9 |
| B18 | 26.4 |

Target: T3, human glucagon receptor (human, UniProt P47871 26-477)
T3 construct: whole, on cells; also called hGcgR; GcgR
Assay: [125I]-Gcg competition SPA, hGcgR membranes

T3 sequence (P47871 26-477): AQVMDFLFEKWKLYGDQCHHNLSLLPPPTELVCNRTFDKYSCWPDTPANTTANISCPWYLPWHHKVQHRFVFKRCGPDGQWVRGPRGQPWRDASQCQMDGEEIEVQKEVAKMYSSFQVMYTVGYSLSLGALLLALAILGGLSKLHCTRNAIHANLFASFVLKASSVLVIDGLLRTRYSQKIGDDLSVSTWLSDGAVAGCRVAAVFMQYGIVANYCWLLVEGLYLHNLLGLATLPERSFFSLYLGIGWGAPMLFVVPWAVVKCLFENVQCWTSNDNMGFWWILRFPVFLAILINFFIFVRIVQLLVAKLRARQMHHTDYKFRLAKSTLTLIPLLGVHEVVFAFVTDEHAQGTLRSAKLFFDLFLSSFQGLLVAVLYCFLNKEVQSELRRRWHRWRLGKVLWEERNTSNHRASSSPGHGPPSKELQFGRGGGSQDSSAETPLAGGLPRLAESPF

| Binder | Ki [pM] |
| --- | --- |
| B16 | 44400 |
| B17 | 18500 |
| B18 | 64100 |

Target: T4, human GLP-1 receptor (human, UniProt P43220 24-463)
T4 construct: whole, on cells; also called hGLP-1R; hGLP1R
Assay: [125I]-GLP-1 competition SPA, hGLP-1R membranes
Method in brief: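 Kᵢ values are geometric means (SEM) over replicates run on separate days, derived from IC₅₀ of four-parameter curve fits. Buffer: HEPES 25 mM pH 7.4 with CaCl₂ 2.5 mM, MgCl₂ 1 mM, bacitracin 0.1%, TWEEN-20 0.003%, EDTA-free protease inhibitors.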

| Binder | Ki [pM] |
| --- | --- |
| B16 | 875 |
| B17 | 617 |
| B18 | 1040 |
